We go through two proteins from doi:10.1101/2021.05.19.444900 (bioRxiv, 2021).

This data set deals with the molecule itself. In words: SEC. (In general: Size exclusion chromatography separates by hydrodynamic size, large species first.)

B1: recombinant NAP1L4 (aa 2-375 of isoform 1) with N-terminal His-tag (natural protein)
chain: ADHSFSDGVPSDSVEAAKNASNTEKLTDQVMQNPRVLAALQERLDNVPHTPSSYIETLPKAVKRRINALKQLQVRCAHIEAKFYEEVHDLERKYAALYQPLFDKRREFITGDVEPTDAESEWHSENEEEEKLAGDMKSKVVVTEKAAATAEEPDPKGIPEFWFTIFRNVDMLSELVQEYDEPILKHLQDIKVKFSDPGQPMSFVLEFHFEPNDYFTNSVLTKTYKMKSEPDKADPFSFEGPEIVDCDGCTIDWKKGKNVTVKTIKKKQKHKGRGTVRTITKQVPNESFFNFFNPLKASGDGESLDEDSEFTLASDFEIGHFFRERIVPRAVLYFTGEAIEDDDNFEEGEEGEEEELEGDEEGEDEDDAEINPKV
With B1, the binding result is given as “binds”.

B2: recombinant NAP1L1 (aa 69-391 of isoform 1) with N-terminal His-tag (domain or fragment)
chain: SLPRVVKRRVNALKNLQVKCAQIEAKFYEEVHDLERKYAVLYQPLFDKRFEIINAIYEPTEEECEWKPDEEDEISEELKEKAKIEDEKKDEEKEDPKGIPEFWLTVFKNVDLLSDMVQEHDEPILKHLKDIKVKFSDAGQPMSFVLEFHFEPNEYFTNEVLTKTYRMRSEPDDSDPFSFDGPEIMGCTGCQIDWKKGKNVTLKTIKKKQKHKGRGTVRTVTKTVSNDSFFNFFAPPEVPESGDLDDDAEAILAADFEIGHFLRERIIPRSVLYFTGEAIEDDDDDYDEEGEEADEEGEEEGDEENDPDYDPKKDQNPAECKQQ
B2: the binding result was “binds”.
